How the values were obtained:
[1] = target: T1, human IL-2Rα protein (10165-H08H, Sino Biological) (human, UniProt P01589 22-213); assay: ELISA, IL-2Rα coated at 2 µg/ml
T1 construct: Both are treated as the same protein; also called receptor IL-2Rα protein; CD25
T1 sequence (looked up): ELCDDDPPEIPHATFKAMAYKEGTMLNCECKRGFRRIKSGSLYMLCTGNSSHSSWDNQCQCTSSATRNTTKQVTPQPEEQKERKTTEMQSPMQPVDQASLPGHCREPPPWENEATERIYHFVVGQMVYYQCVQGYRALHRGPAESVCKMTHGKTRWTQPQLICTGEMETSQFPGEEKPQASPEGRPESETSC

[2] = target: T2, human IL-2Rβ protein (10696-H05H, Sino Biological) (human, UniProt P14784 27-239); assay: ELISA, IL-2Rβ coated at 2 µg/ml; reference wild-type IL-2
T2 construct: Both are treated as the same protein; also called receptor IL-2Rβ protein; CD122
T2 sequence (looked up): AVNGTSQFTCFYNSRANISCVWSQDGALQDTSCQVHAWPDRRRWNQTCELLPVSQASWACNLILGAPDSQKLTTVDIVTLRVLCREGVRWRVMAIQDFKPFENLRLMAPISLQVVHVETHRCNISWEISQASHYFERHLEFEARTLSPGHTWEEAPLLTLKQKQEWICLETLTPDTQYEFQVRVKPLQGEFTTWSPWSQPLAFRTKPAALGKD

B1: IL-2-Fc fusion protein (Fc fusion)
chain: APTSSSTKKTQLQLEHLLLDLQMILNGINNYKNPKLTAMLTFKFYMPKKATELKHLQCLEEELKPLEEVLNLAQSKNFHFDPRDVVSNINVFVLELKGSETTFMCEYADETATIVEFLNRWITFCQSIISTLTGGGGSGGGGSGGGGSEPKSCDKTHTCPPCPAPEAAGGPSVFLFPPKPKDTLYITREPEVTCVVVDVSHEDPEVKFNWYVDGVEVHNAKTKPREEQYNSTYRVVSVLTVLHQDWLNGKEYKCKVSNKALPAPIEKTISKAKGQPREPQVYTLPPSREEMTKNQVSLTCLVKGFYPSDIAVEWESNGQPENNYKTTPPVLDSDGSFFLYSKLTVDKSRWQQGNVFSCSVMHEALHNHYTQKSLSLSPK
With B1 the binding result [1] was “binds” and the “fold improvement of binding capacity compared with wild-type IL-2” value [2] was 24 times.

— US20250313602A1 (NANJING JSIAMA BIOPHARMACEUTICALS, published 2025)
